In test [1] the target is T1, CD38 (Homo sapiens, UniProt P28907).
T1 construct: purchased R&D Systems
In words: ELISA binding assay of I-1 / I-2 sequence variants to CD38. As for the experimental part:
Recombinant human CD38 proteins were purchased from R&D Systems. In some embodiments, the following codons were used. ClAc-Ala: N-Chloroacetyl-L-alanine; MePhe: N-Methyl-L-phenylalanine; MeGly: N-Methyl-glycine; Ahp: (S)-2-aminoheptanoic acid; Bph: (S)-3-([1,1′-biphenyl]-4-yl)-2-aminopropanoic acid.
A number of compounds having similar structures to compound I-1 (difference being amino acid sequence) were prepared and assessed in an ELISA assay. The first sequence is of I-1, and SEQ ID.NO.1.
A number of compounds having similar structures to compound I-2 (difference being amino acid sequence) were prepared and assessed in an ELISA assay. The first sequence is of I-2, and SEQ ID NO. 2.
For orientation: In an ELISA, binding on a coated surface is turned into a signal by an enzyme label.

Test [2] has as its target T1, CD38. Briefly: SPR assay (BIACORE T200, Sensor Chip CM3, single-cycle kinetics) of binding to immobilized CD38. Conditions: for kon / koff: SPR Biacore T200, CM3 chip, HBS-EP with 1% DMSO; for kon: read-out: Ka (association rate constant); for koff: read-out: Kd (dissociation rate constant); for Kd: pegylated compounds, SPR as in Example 2. Here is the method:
One of many useful technology for assessing CD38 binding is surface plasmon resonance (SPR). For example, the binding constant of I-1 (SEQ ID NO. 1; same as below) and I-2 (SEQ ID NO. 2; same as below) to CD38 was analyzed by a SPR assay using BIACORE T200 (cytiva: Former GE Healthcare). After the equilibration of Series S Sensor Chip CM3 (produced by cytiva: Former GE Healthcare) with Running Buffer (HBS-EP with 1% (v/v) DMSO), an EDC/NHS mixture was injected at a flow rate of […] for 4 minutes to thereby activate the functional groups on sensor chip. CD38 in 10 mM Acetate (pH5.5) was injected immobilized to at a flow rate of 5 L/min. For 4 minutes to immobilize the CD38 on the substrate surfaces of the sensor chip. Then Ethanolamine was injected at a flow rate of […] for 4 minutes. 1.0 M Ethanolamine (aq.) was injected at a flow rate of […] for 420 seconds for capping. 10 mM Peptides in DMSO were diluted to obtain 10 uM with Running Buffer, and prepared 100 nM, 50 nM, 25 nM, 10 nM, 5 nM of each peptide solutions (Peptide Samples).
Using these Peptide Samples, kinetics of peptides against CD38 was measured. The method adopted for sample measurement was a single-cycle kinetics method. The analysis was conducted using the evaluation software provided with Biacore T200. A DMSO correction curve obtained by solvent correction measurements was applied for the analysis. Kinetics fitting was done on the difference data obtained by subtracting the baseline data from sample measurement data.
KD values were calculated based on the association rate constant (ka) and dissociation rate constant (kd).
The binding constant of pegylated compounds was analyzed by a surface plasmon resonance as in the Example −2.
On the technique in general: In SPR one partner is held on a chip, and binding of the other changes the refractive index at the surface.

The target in test [3] is T2, His-tagged CD38 (human, UniProt P28907 43-300, limits assumed).
T2 construct: The order of CD38 and tag is not known; not shown: His tag
In words: SPR (Biacore S200), His-tagged CD38 immobilised, single-cycle kinetics. As for the experimental part:
EDC/NHS mixture was injected at a flow rate of […] for 7 minutes to thereby activate the functional groups on sensor chip. His-tagged CD38 in Running Buffer (10 mM HEPES pH7.4, 150 mM NaCl, 0.05% Tween 20) was injected immobilized to at a flow rate of […]. For 7 minutes to immobilize the CD38 on the substrate surfaces of the sensor chip. Then Ethanolamine was injected at a flow rate of […] for 7 minutes.
1.0 M Ethanolamine(aq.) was injected at a flow rate of 10 L/min for 420 seconds for capping. 10 mM peptides (which were synthesised described above) in DMSO were diluted to obtain 10 uM with Running Buffer, and prepared 100 nM, 50 nM, 25 nM, 10 nM, 5 nM of each peptide's solutions (Peptide Samples).
Using these Peptide Samples, kinetics of peptides against His-tagged CD38 was measured. The method adopted for sample measurement was a single-cycle kinetics method. The analysis was conducted using the evaluation software 1.1 provided with Biacore S200. A DMSO correction curve obtained by solvent correction measurements was applied for the analysis. Kinetics fitting was done on the difference data obtained by subtracting the baseline data from sample measurement data.

Where [4] appears, read: compounds similar to I-2, larger values indicate stronger binding.
Where [5] appears, read: compounds similar to I-1, larger values indicate stronger binding.

One may read the Kd as the free concentration of one partner at which half of the binding sites on the other are occupied at equilibrium, for simple one-to-one binding. A low value points to a tighter complex.

Positions of bridges follow the written chain, without caps; N, C: chain ends. Non-standard residues stand in square brackets, D forms with d. Residues, ends and D or L forms follow the SMILES beside them. No end group written: not given here. PEG12 = NCCOCCOCCOCCOCCOCCOCCOCCOCCOCCOCCOCCOCCC(=O)O; Bip = N[C@@H](Cc1ccc(-c2ccccc2)cc1)C(=O)O; Met(O2) = CS(=O)(=O)CC[C@H](N)C(=O)O; NMeF = CN[C@@H](Cc1ccccc1)C(=O)O; hArg = N=C(N)NCCCC[C@H](N)C(=O)O; Ahp(2) = CCCCC[C@H](N)C(=O)O; PEG4 = NCCOCCOCCOCCOCCC(=O)O

As to `CC(C)C[C@@H]1NC(=O)[C@H](C)NC(=O)CSC[C@@H](C(N)=O)NC(=O)[C@H](C(C)C)NC(=O)[C@H](Cc2c[nH]c3ccccc23)NC(=O)[C@H](C(C)C)NC(=O)[C@H](Cc2ccc(-c3ccccc3)cc2)NC(=O)[C@@H]2CCCN2C(=O)[C@H](CC(C)C)NC(=O)[C@H](C(C)C)NC(=O)[C@H](Cc2ccccc2)N(C)C(=O)[C@H](Cc2c[nH]cn2)NC1=O` [I-2] ({CH2CO}-ALH[NMeF]VLP[Bip]VWVC-NH2; thioether N-12), the “Binding Assay” value in test [1] (setting [4]) stood at 1.69. In addition, in test [2], the kon came to 360000 M⁻¹ s⁻¹ and the koff stood at 0.013 s⁻¹. In turn, `CC(C)C[C@@H]1NC(=O)[C@H](C)NC(=O)CSC[C@@H](C(=O)NCCOCCOCCOCCOCCC(=O)N[C@@H](CCCCN)C(N)=O)NC(=O)[C@H](C(C)C)NC(=O)[C@H](Cc2c[nH]c3ccccc23)NC(=O)[C@H](C(C)C)NC(=O)[C@H](Cc2ccc(-c3ccccc3)cc2)NC(=O)[C@@H]2CCCN2C(=O)[C@H](CC(C)C)NC(=O)[C@H](C(C)C)NC(=O)[C@H](Cc2ccccc2)N(C)C(=O)[C@H](Cc2c[nH]cn2)NC1=O` [I-5] ({CH2CO}-ALH[NMeF]VLP[Bip]VWVC[PEG4]K-NH2; thioether N-12) returned a Kd in test [2] of 10.5 nM.

Take “A R Ahp Y A D G V L Bpb Ahp D C: compound of similar structure to I-1, difference being amino acid sequence: Ala at position 5 (YADGVL; not fully specified (N-terminus, C-terminus, bridges))”: in test [1] (setting [5]), the “Binding Assay” value is 0.28. As for `CCCCC[C@@H]1NC(=O)[C@H](CCCNC(=N)N)NC(=O)[C@H](C)NC(=O)CSC[C@@H](C(N)=O)NC(=O)[C@H](CC(=O)O)NC(=O)[C@H](CCCCC)NC(=O)[C@H](Cc2ccc(-c3ccccc3)cc2)NC(=O)[C@H](CC(C)C)NC(=O)[C@H](C(C)C)NC(=O)CNC(=O)[C@H](CC(=O)O)NC(=O)[C@H](Cc2c[nH]cn2)NC(=O)[C@H](Cc2ccc(O)cc2)NC1=O` [I-1], in test [1] (setting [5]), the “Binding Assay” value was 1.97. In test [2], the kon stood at 770000 M⁻¹ s⁻¹ and the koff worked out at 0.0018 s⁻¹. Turning to “A L H A V L P Bph V W V C: compound of similar structure to I-2, difference being amino acid sequence: Ala at position 4 (ALHAVLP[Bip]VWVC; not fully specified (N-terminus, bridges))”, the “Binding Assay” value in test [1] (setting [4]) is listed as 0.10. For the molecule “A R A Y H D G V L Bph Ahp D C: compound of similar structure to I-1, difference being amino acid sequence: Ala at position 3 (ARAYHDGVL[Bip][Ahp(2)]DC; not fully specified (N-terminus, bridges))”, in test [1] (setting [5]), the “Binding Assay” value was determined as 0.11. For the molecule `CC(C)C[C@@H]1NC(=O)[C@H](C)NC(=O)CSC[C@@H](C(=O)NCCOCCOCCOCCOCCOCCOCCOCCOCCOCCOCCOCCOCCC(=O)N[C@@H](CCCCN)C(N)=O)NC(=O)[C@H](C(C)C)NC(=O)[C@H](Cc2c[nH]c3ccccc23)NC(=O)[C@H](C(C)C)NC(=O)[C@H](Cc2ccc(-c3ccccc3)cc2)NC(=O)[C@@H]2CCCN2C(=O)[C@H](CC(C)C)NC(=O)[C@H](C(C)C)NC(=O)[C@H](Cc2ccccc2)N(C)C(=O)[C@H](Cc2c[nH]cn2)NC1=O` [I-6] ({CH2CO}-ALH[NMeF]VLP[Bip]VWVC[PEG12]K-NH2; thioether N-12), in test [2], binding was characterised by a dissociation constant (Kd) of 11.7 nM. With “A R Ahp A H D G V L Bph Ahp D C: compound of similar structure to I-1, difference being amino acid sequence: Ala at position 4 (AHDGVL[Bip][Ahp(2)]DC; not fully specified (N-terminus, bridges))”, the “Binding Assay” value in test [1] (setting [5]) is listed as 0.11. For the molecule `CCCCC[C@@H]1NC(=O)[C@H](CCCNC(=N)N)NC(=O)[C@H](C)NC(=O)CSC[C@@H](C(=O)NCCOCCOCCOCCOCCOCCOCCOCCOCCOCCOCCOCCOCCC(=O)N[C@@H](CCCCN)C(N)=O)NC(=O)[C@H](CC(=O)O)NC(=O)[C@H](CCCCC)NC(=O)[C@H](Cc2ccc(-c3ccccc3)cc2)NC(=O)[C@H](CC(C)C)NC(=O)[C@H](C(C)C)NC(=O)CNC(=O)[C@H](CC(=O)O)NC(=O)[C@H](Cc2c[nH]cn2)NC(=O)[C@H](Cc2ccc(O)cc2)NC1=O` [I-4], the Kd in test [2] came to 4.3 nM.

As to “A A Ahp Y H D G V L Bph Ahp D C: compound of similar structure to I-1, difference being amino acid sequence: Ala at position 2 (YHDGVL[Bip][Ahp(2)]DC; not fully specified (N-terminus, bridges))”, the “Binding Assay” value in test [1] (setting [5]) amounted to 0.60. With “A L H MeF V L P A V W V C: compound of similar structure to I-2, difference being amino acid sequence: Ala at position 8 (VLPAVWVC; not fully specified (N-terminus, bridges))”, the “Binding Assay” value in test [1] (setting [4]) was 0.09.

B1: Circular peptide having amino acid sequence represented by SEQ ID NO.14 (peptide)
peptide: {CH2CO}-AR[Ahp(2)]YHDEV[Met(O2)][Bip][Ahp(2)]DC
modifications: thioether N-13; not fully specified; also: circular peptide, closure not given here
Molecule B1 came in with a Kd in test [3] of 38 nM.

B2: Circular peptide having amino acid sequence represented by SEQ ID NO.23 (peptide)
peptide: ARXYHDEVLXXDC
modifications: not fully specified; Ahp at 3; Bph at 10; Ano ((S)-2-aminononanoic acid) at 11; circular peptide
On to B2, for which the Kd in test [3] is 3.34 nM.

B3: Circular peptide having amino acid sequence represented by SEQ ID NO.24 (peptide)
peptide: ARXYHDEVLXXDC
modifications: not fully specified; Ahp at 3; Bph at 10; Ado ((S)-2-aminoundecanoic acid) at 11; circular peptide
In test [3], B3 came in with a Kd of 3.53 nM.

B4: Circular peptide having amino acid sequence represented by SEQ ID NO.9 (peptide)
peptide: {CH2CO}-AR[Ahp(2)]YHDGV[Met(O2)][Bip][Ahp(2)]DC
modifications: thioether N-13; not fully specified
B4 gave a Kd in test [3] of 9.44 nM.

B5: Circular peptide having amino acid sequence represented by SEQ ID NO.13 (peptide)
peptide: {CH2CO}-AR[Ahp(2)]YHDQV[Met(O2)][Bip][Ahp(2)]DC
modifications: thioether N-13; not fully specified; also: circular peptide, closure not given here
In test [3], B5 gave an equilibrium dissociation constant (Kd) of 22.2 nM.

B6: Peptide of SEQ ID NO.27 (peptide)
peptide: {CH2CO}-AR[Ahp(2)]YHDEVL[Bip][Ahp(2)]AC
modifications: thioether N-13
B6 had a Kd in test [3] of 4.99 nM.

B7: Circular peptide having amino acid sequence represented by SEQ ID NO.12 (peptide)
peptide: {CH2CO}-AR[Ahp(2)]YHD[hArg]VL[Bip][Ahp(2)]DC
modifications: thioether N-13; not fully specified; also: circular peptide, closure not given here
In turn, B7 yielded a Kd in test [3] of 2.29 nM.

B8: Circular peptide having amino acid sequence represented by SEQ ID NO.26 (peptide)
peptide: ARXYHDEVLXXDC
modifications: not fully specified; Ahp at 3; Bph at 10; PhNva ((S)-2-amino-5-phenylpentanoic acid) at 11; circular peptide
Regarding B8, the dissociation constant (Kd) in test [3] is 26 nM.

B9: Circular peptide having amino acid sequence represented by SEQ ID NO.25 (peptide)
peptide: ARXYHDEVLXXDC
modifications: not fully specified; Ahp at 3; Bph at 10; PhNle ((S)-2-amino-6-phenylhexanoic acid) at 11; circular peptide
With B9, in test [3], binding was put at a Kd of 1.38 nM.

The values above are taken from patent US20250263440A1, “CD38-BINDING AGENTS AND USES THEREOF” (PeptiDream Inc., priority 2019, published 2025).
